IntAct's records for PubMed 15563508

B1: Carbonic anhydrase 4 (Homo sapiens), P22748 (parent)
chain: MRMLLALLALSAARPSASAESHWCYEVQAESSNYPCLVPVKWGGNCQKDRQSPINIVTTKAKVDKKLGRFFFSGYDKKQTWTVQNNGHSVMMLLENKASISGGGLPAPYQAKQLHLHWSDLPYKGSEHSLDGEHFAMEMHIVHEKEKGTSRNVKEAQDPEDEIAVLAFLVEAGTQVNEGFQPLVEALSNIPKPEMSTTMAESSLLDLLPKEEKLRHYFRYLGSLTTPTCDEKVVWTVFREPIQLHREQILAFSQKLYYDKEQTVSMKDNVRPLQQLGQRTVIKSGAPGRPLPWALPALLGPMLACLLAGFLR
partner: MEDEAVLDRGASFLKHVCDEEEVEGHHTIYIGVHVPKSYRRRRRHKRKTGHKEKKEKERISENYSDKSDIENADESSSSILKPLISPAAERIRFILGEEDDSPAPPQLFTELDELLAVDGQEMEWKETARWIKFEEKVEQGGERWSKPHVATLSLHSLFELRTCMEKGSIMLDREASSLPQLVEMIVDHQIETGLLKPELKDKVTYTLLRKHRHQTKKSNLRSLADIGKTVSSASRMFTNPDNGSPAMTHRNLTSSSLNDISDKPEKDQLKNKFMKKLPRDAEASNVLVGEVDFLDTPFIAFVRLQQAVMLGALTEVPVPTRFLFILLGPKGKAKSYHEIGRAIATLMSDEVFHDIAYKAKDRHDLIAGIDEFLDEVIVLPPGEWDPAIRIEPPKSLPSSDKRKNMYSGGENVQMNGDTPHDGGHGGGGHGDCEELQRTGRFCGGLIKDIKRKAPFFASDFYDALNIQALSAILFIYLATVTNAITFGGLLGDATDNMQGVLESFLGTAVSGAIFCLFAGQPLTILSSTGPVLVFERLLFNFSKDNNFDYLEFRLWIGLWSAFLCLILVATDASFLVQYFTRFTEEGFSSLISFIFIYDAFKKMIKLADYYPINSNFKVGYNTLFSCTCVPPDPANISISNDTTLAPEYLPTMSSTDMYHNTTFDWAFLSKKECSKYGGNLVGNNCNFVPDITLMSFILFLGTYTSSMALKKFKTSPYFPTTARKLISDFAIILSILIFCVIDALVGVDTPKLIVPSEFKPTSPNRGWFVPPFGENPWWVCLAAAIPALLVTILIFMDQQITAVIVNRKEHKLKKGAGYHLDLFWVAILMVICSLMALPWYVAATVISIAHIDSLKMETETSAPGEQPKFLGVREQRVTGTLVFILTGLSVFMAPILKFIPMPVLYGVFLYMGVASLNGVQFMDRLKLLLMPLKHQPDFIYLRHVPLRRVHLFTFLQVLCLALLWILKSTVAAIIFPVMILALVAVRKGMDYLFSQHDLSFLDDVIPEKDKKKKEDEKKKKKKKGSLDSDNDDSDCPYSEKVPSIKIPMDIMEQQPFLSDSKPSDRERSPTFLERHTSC

Variants of: B1
Details: with s4a4_human SLC4A4, Q9Y6R1

| Variant | effect of a mutation on the interaction |
| --- | --- |
| MRMLLALLALSAAWPSASAESHWCYEVQAESSNYPCLVPVKWGGNCQKDRQSPINIVTTKAKVDKKLGRFFFSGYDKKQTWTVQNNGHSVMMLLENKASISGGGLPAPYQAKQLHLHWSDLPYKGSEHSLDGEHFAMEMHIVHEKEKGTSRNVKEAQDPEDEIAVLAFLVEAGTQVNEGFQPLVEALSNIPKPEMSTTMAESSLLDLLPKEEKLRHYFRYLGSLTTPTCDEKVVWTVFREPIQLHREQILAFSQKLYYDKEQTVSMKDNVRPLQQLGQRTVIKSGAPGRPLPWALPALLGPMLACLLAGFLR [R14W] | decreasing interaction |
